Measured values: patent US20230242902A1, “A HIGHLY ERROR-PRONE […] R[…] FOR TARGETED CONTINUOUS EVOLUTION IN VIVO” (The Regents of the University of California, priority 2017, published 2023)
Changes are numbered by the printed parent chain. Names may count otherwise.

B1: R662A: TP-DNAP1 variant (protein)
chain: MDYKDKALNDLRNVYADFDSLPLDFRQILIKDRATLLQKEDVEKKILERQEDAKKYAEYLKQSEIPERISLPNIKRHKGVSISFEETSEDMVLEPRPFIFDGLNIRCFRRETIFSLKNKILNMVKESSSFKNVSRQSVSFMYFKIFNKGKVIASTKSVNIYEDKIDERLEDLCNNFDDVLKKIIDVTYGYESLFVSETYSYVIFYAKSIYFPQPRCVNNWGNNIPNILTFDSFKLFTANKNNVSCIKQCSRFLWQKDFNTLEEMIEYKNGNICIVTPQLHINDVRDIKSFNDIRLYSESPIKTFSVIDNTITYLFYFKEHLGVIFNITKSRHDRRVTKFSPLSKFSDVKNITVCFDIESYFDPEKESNQVNIPFICCASIIYNKVIGNIVDFEGRDCVAQMIEYVVDICGELNISSVELIAHNGGGYDFHYILSSMYNPAAIKNILIRNNSFISFNFAHDGVKFSVKDSYSFLLCSLANASKAFLNEETFKKTDFPHHDLKTADDLYKVYKEWSSVNTEINHVVEKEKLLITSEHIVNFTKNDKSKTLIEWSKDYCRNDVLVLSKVWLEFKNAVEDIFNCELVDQTMTLAGLSYKLFQANMPFDVELRHPNKEDYFNMREALIGGRCISVNGIYKDVLCLDVKSLYPASMAFYDQPYGSFKAVSSRPKDELGIYYVRVTPNRNNKSNFFPIRSHNKITYNNFEESTYIAWYTNVDIDIGLSEGHNIEYIPFDSYGNIGYSWSKKGKIFEKYIKDVLYKLKIKYEKQNNKVKRNVIKIIMNSLWGKFAQKWVNFEYFIKSEDDIDFESEEAYKIWDTDFMLIKKIKESTYSSKPIQNGVFTLSWARYHMKSIWDAGAKEGAECIYSDTDSIFVHKEHFKKNAKFMLNGLKVPIIGSEVGQLELECEFDKLLCAGKKQYMGFYTYFQDGKPCIKEKKRFKGIPSNYIIPELYAHLLSGADKEAKIQFLKFRREWGSVKGYIENKTVKAT
B2: R662C: TP-DNAP1 variant (protein)
chain: B1 chain with A662C
B3: N683H: TP-DNAP1 variant (protein)
chain: B1 chain with A662R, N683H
B4: Y296K: TP-DNAP1 variant (protein)
chain: B1 chain with Y296K, A662R
B5: E670M, S693G: TP-DNAP1 variant (protein)
chain: B1 chain with A662R, E670M, S693G
B6: T679E: TP-DNAP1 variant (protein)
chain: B1 chain with A662R, T679E
B7: R677M: TP-DNAP1 variant (protein)
chain: B1 chain with A662R, R677M
B8: T679A: TP-DNAP1 variant (protein)
chain: B1 chain with A662R, T679A
B9: R682P: TP-DNAP1 variant (protein)
chain: B1 chain with A662R, R682P
B10: T679R: TP-DNAP1 variant (protein)
chain: B1 chain with A662R, T679R
B11: N681F: TP-DNAP1 variant (protein)
chain: B1 chain with A662R, N681F
B12: L295Q: TP-DNAP1 variant (protein)
chain: B1 chain with L295Q, A662R
B13: N681Q, R692I: TP-DNAP1 variant (protein)
chain: B1 chain with A662R, N681Q, R692I
B14: T679Q: TP-DNAP1 variant (protein)
chain: B1 chain with A662R, T679Q
B15: R677L: TP-DNAP1 variant (protein)
chain: B1 chain with A662R, R677L
B16: R682D: TP-DNAP1 variant (protein)
chain: B1 chain with A662R, R682D
B17: R677S: TP-DNAP1 variant (protein)
chain: B1 chain with A662R, R677S
B18: N683T: TP-DNAP1 variant (protein)
chain: B1 chain with A662R, N683T
B19: R677Q: TP-DNAP1 variant (protein)
chain: B1 chain with A662R, R677Q
B20: I673V, E703D: TP-DNAP1 variant (protein)
chain: B1 chain with A662R, I673V, E703D
B21: N684D: TP-DNAP1 variant (protein)
chain: B1 chain with A662R, N684D
B22: D669G, T698M: TP-DNAP1 variant (protein)
chain: B1 chain with A662R, D669G, T698M
B23: Y675L: TP-DNAP1 variant (protein)
chain: B1 chain with A662R, Y675L
B24: Y675H: TP-DNAP1 variant (protein)
chain: B1 chain with A662R, Y675H
B25: N683A: TP-DNAP1 variant (protein)
chain: B1 chain with A662R, N683A

These molecules were tested on p1 (assay: p1 copy number by p1-encoded mKate2 fluorescence). Conditions: OR-Y24, measured in triplicate.
Assay type: cell-based, S. cerevisiae
Description: A calibration curve was established to correlate p1 copy number, determined via quantitative PCR (qPCR), with fluorescence of p1-encoded mKate2 (Table 1). Five TP-DNAP1 variants representing a wide range of copy numbers were transformed into ORY24 and passaged until w.t. p1 was displaced. The five OR-Y24 strains were grown to saturation, diluted 1:10,000 to mimic p1 fluctuation tests, and grown in triplicate 100 μL cultures and duplicate 40 mL cultures. 100 μL saturated cultures were subject to fluorescence measurement of mKate2 (ex/em=561 nm/620 nm, bandwidth=15 nm) on a flow cytometer (Invitrogen Attune NxT). Whole-cell DNA extracts were prepared from 40 mL cultures and used as templates for qPCR measurement of p1-encoded leu2 (Q180*), as described previously (Ravikumar et al., 2014). p1-encoded LEU2 was PCR amplified with qPCR-Leu2F and qPCR Leu2R; and genomic LEU3 was PCR amplified with qPCR-Leu3F and qPCR-Leu3R using SyBR Green (Fisher Scientific) master mix.
To assay p1 copy number for large-scale p1 fluctuation tests, additional replicates of OR-Y24 strains were grown from the 1:10,000 dilution in triplicate and saturated cultures were subject to fluorescence measurement via flow cytometry. Fluorescence measurements were converted to copy number with the linear calibration curve.
To assay relative p1 copy number for small-scale p1 fluctuation tests, an additional 200 μL culture of OR-Y24 strains were grown from the 1:10,000 dilution. 200 μL saturated cultures were subject to an OD600 measurement and fluorescence measurement of mKate2 (ex/em=588 nm/633 nm), using a microplate reader (TECAN Infinite M200 PRO). A linear relationship was assumed between p1 copy number and OD600-normalized mKate2 fluorescence. Copy numbers were calculated from normalization to a w.t. TP-DNAP1 control.
For a few large-scale p1 fluctuation tests, p1 copy number was assayed by the method of small scale p1 fluctuation tests (i.e. microplate reader measurement). For these experiments, mutant TP-DNAP1 p1 copy numbers were calculated by normalization to a w.t. TP-DNAP1 control. The copy number of this control was assumed to be the average w.t. TP-DNAP1 copy number from all large-scale p1 fluctuation tests that used flow cytometry measurements.
TP-DNAP1 plasmids were isolated from these strains and subject to Sanger sequencing. 210 unique variants were identified and the corresponding plasmids were re-transformed into OR-Y24. Transformed strains were passaged in SC-UH until w.t. p1 was displaced, and subject to p1 copy number measurement in triplicate. Four high copy variants were directly subject to qPCR measurements for validation. To test the suppressor activity of the G410H mutation, which yields increased p1 copy number, this amino acid change was added to several low-activity TP-DNAP1 variants. p1 copy number was similarly assayed for these strains.
With B1 the “Mean fold-increase over w.t. (p1 copy number)” value (shortened to “Mean fold-increase”) was 1.75 fold.
In the case of B2, the “Mean fold-increase” value is reported as 1.7 fold.
B3 was tested, and the “Mean fold-increase” value was 1.68 fold.
In the case of B4, the “Mean fold-increase” value is reported as 2.28 fold.
B5 was tested, and the “Mean fold-increase” value was 1.55 fold.
B6 was tested, and the “Mean fold-increase” value was 1.7 fold.
In the case of B7, the “Mean fold-increase” value is reported as 1.97 fold.
With B8 the “Mean fold-increase” value was 1.82 fold.
B9 was tested, and the “Mean fold-increase” value was 1.75 fold.
For B10, the “Mean fold-increase” value was 1.73 fold.
B11 was tested, and the “Mean fold-increase” value was 1.75 fold.
For B12, the “Mean fold-increase” value was 2.48 fold.
In the case of B13, the “Mean fold-increase” value is reported as 1.74 fold.
With B14 the “Mean fold-increase” value was 1.71 fold.
With B15 the “Mean fold-increase” value was 1.68 fold.
With B16 the “Mean fold-increase” value was 1.74 fold.
B17 was tested, and the “Mean fold-increase” value was 1.87 fold.
For B18, the “Mean fold-increase” value was 1.57 fold.
With B19 the “Mean fold-increase” value was 1.84 fold.
With B20 the “Mean fold-increase” value was 1.88 fold.
B21 was tested, and the “Mean fold-increase” value was 1.54 fold.
With B22 the “Mean fold-increase” value was 1.65 fold.
B23 was tested, and the “Mean fold-increase” value was 1.96 fold.
In the case of B24, the “Mean fold-increase” value is reported as 2.14 fold.
For B25, the “Mean fold-increase” value was 1.93 fold.
